T1: CD5 of OKT3-activated primary αβ T cells (human, UniProt P06127 25-495)
T1 construct: whole, on cells
T1 sequence (looked up): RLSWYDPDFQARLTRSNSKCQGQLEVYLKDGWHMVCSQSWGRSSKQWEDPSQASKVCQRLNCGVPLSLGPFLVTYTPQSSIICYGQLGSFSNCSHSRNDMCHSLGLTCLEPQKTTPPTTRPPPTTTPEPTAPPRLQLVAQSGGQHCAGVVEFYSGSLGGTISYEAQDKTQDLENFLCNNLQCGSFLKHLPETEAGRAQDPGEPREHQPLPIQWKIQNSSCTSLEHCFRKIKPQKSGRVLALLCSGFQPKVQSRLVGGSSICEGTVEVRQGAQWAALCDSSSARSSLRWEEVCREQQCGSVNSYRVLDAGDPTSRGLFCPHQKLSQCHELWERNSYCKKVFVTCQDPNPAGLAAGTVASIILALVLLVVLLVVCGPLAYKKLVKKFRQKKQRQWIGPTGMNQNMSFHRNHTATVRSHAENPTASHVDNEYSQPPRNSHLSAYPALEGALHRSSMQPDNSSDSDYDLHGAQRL

T2: CD2 of OKT3-activated primary αβ T cells (human, UniProt P06729 25-351)
T2 construct: whole, on cells
T2 sequence (looked up): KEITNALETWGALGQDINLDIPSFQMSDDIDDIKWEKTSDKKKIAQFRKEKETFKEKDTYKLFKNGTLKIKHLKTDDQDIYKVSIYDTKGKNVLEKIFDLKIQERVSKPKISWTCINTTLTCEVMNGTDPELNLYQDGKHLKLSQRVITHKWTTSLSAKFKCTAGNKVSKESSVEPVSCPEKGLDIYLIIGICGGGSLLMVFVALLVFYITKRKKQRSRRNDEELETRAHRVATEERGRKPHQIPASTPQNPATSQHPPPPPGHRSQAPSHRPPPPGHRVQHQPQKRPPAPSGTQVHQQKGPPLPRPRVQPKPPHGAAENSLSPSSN

T3: recombinant NRP1 Fc protein (UniProt O14786-2 22-644, limits assumed)
T3 construct: Construct not described
T3 sequence (looked up): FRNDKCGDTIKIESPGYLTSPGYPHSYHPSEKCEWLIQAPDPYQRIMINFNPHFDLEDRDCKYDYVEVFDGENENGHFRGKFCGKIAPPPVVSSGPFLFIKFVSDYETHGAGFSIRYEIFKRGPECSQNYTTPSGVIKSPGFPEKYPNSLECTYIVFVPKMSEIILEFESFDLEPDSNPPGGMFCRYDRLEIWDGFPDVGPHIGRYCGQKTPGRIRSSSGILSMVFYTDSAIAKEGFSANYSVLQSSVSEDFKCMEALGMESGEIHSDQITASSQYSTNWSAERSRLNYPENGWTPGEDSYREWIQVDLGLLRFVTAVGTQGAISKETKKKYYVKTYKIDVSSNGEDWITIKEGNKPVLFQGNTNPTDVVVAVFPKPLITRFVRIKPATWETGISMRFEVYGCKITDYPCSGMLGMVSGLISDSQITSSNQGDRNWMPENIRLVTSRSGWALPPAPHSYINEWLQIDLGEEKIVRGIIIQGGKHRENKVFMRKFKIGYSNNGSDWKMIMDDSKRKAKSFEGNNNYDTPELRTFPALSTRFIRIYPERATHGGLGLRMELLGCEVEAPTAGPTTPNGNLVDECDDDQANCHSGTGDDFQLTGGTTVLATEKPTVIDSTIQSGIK

T4: recombinant NRP2 Fc protein (UniProt O60462 23-864, limits assumed)
T4 construct: Construct not described
T4 sequence (looked up): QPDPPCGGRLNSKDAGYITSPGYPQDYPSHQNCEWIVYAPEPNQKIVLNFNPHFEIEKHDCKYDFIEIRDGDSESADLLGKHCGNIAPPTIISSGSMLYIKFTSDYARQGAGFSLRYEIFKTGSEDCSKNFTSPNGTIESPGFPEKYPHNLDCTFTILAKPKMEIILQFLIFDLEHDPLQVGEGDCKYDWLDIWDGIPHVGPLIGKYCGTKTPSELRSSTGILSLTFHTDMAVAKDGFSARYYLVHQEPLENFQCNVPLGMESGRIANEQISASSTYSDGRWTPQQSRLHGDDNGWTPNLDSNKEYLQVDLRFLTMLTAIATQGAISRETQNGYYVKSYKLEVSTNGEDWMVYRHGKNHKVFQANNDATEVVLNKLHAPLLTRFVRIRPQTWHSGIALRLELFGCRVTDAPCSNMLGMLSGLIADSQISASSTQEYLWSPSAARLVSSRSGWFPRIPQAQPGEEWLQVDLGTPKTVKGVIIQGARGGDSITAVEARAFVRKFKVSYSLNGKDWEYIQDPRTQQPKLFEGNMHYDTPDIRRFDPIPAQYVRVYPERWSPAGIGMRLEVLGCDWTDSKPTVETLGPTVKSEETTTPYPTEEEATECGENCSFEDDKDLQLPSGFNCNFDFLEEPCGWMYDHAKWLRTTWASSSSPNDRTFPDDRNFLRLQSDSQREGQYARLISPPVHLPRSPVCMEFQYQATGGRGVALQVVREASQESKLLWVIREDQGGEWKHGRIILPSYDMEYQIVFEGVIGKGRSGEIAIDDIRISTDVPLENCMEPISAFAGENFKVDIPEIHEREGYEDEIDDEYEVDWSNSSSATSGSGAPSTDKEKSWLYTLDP

B1: BTN3A1-Fc fusion protein (R&D systems Cat #8539-BT-050) (Fc fusion)
chain: not shown
notes: Bought from R&D systems; also called BTN3A1-Fc proteins; CD277; not shown: Fc part of the bought fusion protein
B2: recombinant NKG2A Fc protein (Fc fusion, not shown: a dimerising Fc or GST)
chain: not shown
notes: Construct not described
B3: anti-CD277 monoclonal antibody mAb1 (antibody, human IgG1, kappa, N297A)
heavy: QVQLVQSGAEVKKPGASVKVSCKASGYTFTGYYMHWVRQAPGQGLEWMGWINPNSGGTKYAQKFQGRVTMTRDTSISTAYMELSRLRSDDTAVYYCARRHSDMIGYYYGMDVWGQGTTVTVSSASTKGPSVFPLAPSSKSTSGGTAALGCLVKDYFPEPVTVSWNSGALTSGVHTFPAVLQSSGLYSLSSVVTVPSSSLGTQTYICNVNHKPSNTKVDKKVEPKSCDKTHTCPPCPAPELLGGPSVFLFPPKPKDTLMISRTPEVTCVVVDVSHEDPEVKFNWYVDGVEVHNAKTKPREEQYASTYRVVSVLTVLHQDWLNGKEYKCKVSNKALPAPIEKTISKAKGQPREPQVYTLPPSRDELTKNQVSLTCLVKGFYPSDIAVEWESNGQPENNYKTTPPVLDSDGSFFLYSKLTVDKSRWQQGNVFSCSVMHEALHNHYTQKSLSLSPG
light: DIQMTQSPSSVSASVGDRVTITCRASQGISSWLAWYQQKPGKAPKLLIYAASSLQSGVPSRFSGSGSGTDFTLTISSLQPEDFATYYCQQATDFPPTFGGGTKVEIKRTVAAPSVFIFPPSDEQLKSGTASVVCLLNNFYPREAKVQWKVDNALQSGNSQESVTEQDSKDSTYSLSSTLTLSKADYEKHKVYACEVTHQGLSSPVTKSFNRGEC
notes: also called anti-CD277 antibody mAb1; anti-CD277 mAb1
B4: human BTN3A1 (CD277) expressed on the cell surface (BTN-K32 aAPCs: K562 cells expressing human CD32 and BTN3A1; BMDCs of BTN3A1 knock-in mice) (receptor)
chain: not shown
notes: also called BTNA31-K32; BTN3-K32

Test [1] has as its target T1, CD5 of OKT3-activated primary αβ T cells. As to the kind of experiment: co-immunoprecipitation from activated primary αβ T cells after DTSSP crosslinking, LC-MS/MS. Here is the method: (§1) Proteins were eluted with LDS sample buffer supplemented with DTT by heating at 70° C. for 10 minutes. Eluted fractions from BTN3A1-Fc and control were run into an SDS-gel for 0.5 cm, and the entire gel lanes were excised and digested with trypsin. Liquid chromatography tandem mass spectrometry (LC-MS/MS) analysis of tryptic digests was performed by the Wistar Proteomics and Metabolomics Facility using a Q Exactive HF mass spectrometer (Thermo Scientific). MS/MS spectra generated from the LC-MS/MS runs were searched using full tryptic specificity against the UniProt human database (www.uniprot.org; Oct. 1, 2017) using the MaxQuant 1.6.0.16 program. Protein quantitation was based on intensity and MS/MS count was determined from unique and razor peptides (J. Cox, M. Mann, MaxQuant enables high peptide identification rates, individualized p.p.b.-range mass accuracies and proteome-wide protein quantification. Nat Biotechnol 26, 1367-1372 (2008)). False discovery rates for protein and peptide were set at 1%. Protein tables were filtered to remove reverse database entries, common contaminants, and proteins identified by a single peptide.
(§2) To determine the mechanism by which BTN3A1 (also referred to herein as CD277) inhibits αβ T cell activity, the binding of BTN3A1 to potential immunosuppressive receptors was ruled out by comparing the binding of recombinant NKG2A, GPR174, NRP1, NRP2, PD-1, CTLA4, TIM-3 and BTLA Fc proteins to MHC-I⁻CD32⁺ K562 artificial Antigen-Presenting Cells with BTN3A1 retrovirally expressed on the surface of the cell (BTN-K32 aAPCs) vs. mock-transduced aAPCs. Binding of BTN3A1 to these immunosuppressive receptors was not observed. BTN3A1-Fc proteins were then used to co-immunoprecipitate (co-IP) the binding partner(s) of BTN3A1 on OKT3-activated primary αβ T cells from three independent pull downs from three different donors.

Test [2] deals with T5, CD44 of OKT3-activated primary αβ T cells (human, UniProt P16070 21-742).
T5 construct: whole, on cells
The description is as above. The protocol:
as §1, §2

Test [3] addresses T2, CD2 of OKT3-activated primary αβ T cells. Described as above. The protocol: as §1, §2
The target in test [4] is B4. As to the kind of experiment: binding of recombinant Fc proteins to BTN-K32 aAPCs vs. mock-transduced aAPCs.
Test [5] concerns the target B4. Put plainly: cell-based or functional assay.
In test [6] the target is T6, biotinylated human CD277 Fc fusion (human, UniProt O00481 30-254, limits assumed, biotinylated with EZ-Link Sulfo-NHS biotinylation reagent (sites not given)).
T6 construct: also called human CD277 Fc fusion antigen
Put plainly: yeast display selection (MACS and FACS) for binders of biotinylated human CD277 Fc fusion.

Test [7] concerns the target T3, recombinant NRP1 Fc protein. As to the kind of experiment: binding of recombinant Fc proteins to BTN-K32 aAPCs vs. mock-transduced aAPCs.
The target in test [8] is T4, recombinant NRP2 Fc protein. The description is as above.

T5 sequence (P16070 21-742): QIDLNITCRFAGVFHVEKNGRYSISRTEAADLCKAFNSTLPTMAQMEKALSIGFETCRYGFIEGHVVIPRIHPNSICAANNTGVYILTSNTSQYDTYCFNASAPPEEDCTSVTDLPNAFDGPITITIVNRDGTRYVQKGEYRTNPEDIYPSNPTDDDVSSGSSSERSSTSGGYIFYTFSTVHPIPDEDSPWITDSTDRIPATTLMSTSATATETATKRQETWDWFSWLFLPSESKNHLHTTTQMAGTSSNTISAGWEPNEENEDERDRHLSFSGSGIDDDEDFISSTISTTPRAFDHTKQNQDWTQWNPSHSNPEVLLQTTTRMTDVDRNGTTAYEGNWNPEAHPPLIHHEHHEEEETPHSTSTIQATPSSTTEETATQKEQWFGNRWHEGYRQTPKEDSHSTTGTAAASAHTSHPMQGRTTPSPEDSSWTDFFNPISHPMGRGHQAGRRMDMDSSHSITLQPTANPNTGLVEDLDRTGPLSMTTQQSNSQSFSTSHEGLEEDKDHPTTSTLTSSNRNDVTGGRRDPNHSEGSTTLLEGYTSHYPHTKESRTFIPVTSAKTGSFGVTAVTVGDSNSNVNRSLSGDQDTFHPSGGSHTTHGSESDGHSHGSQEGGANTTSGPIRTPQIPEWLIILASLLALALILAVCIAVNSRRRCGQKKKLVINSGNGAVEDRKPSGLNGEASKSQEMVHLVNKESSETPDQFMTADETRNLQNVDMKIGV

With B1, the binding result in test [1], in test [2] and in test [3] was “no binding (tested: 10 µg/ml BTN3A1-Fc)” in each case.

In the case of B2, the binding result in test [4] was “no binding”.

Turning to B3, in test [5], the “IFN-γ release of purified CD4+ T cells stimulated with BTN-K32 cells (ELISA, fold over baseline)” value is greater than 2 fold; the “IFN-γ release of purified CD8+ T cells stimulated with BTN-K32 cells (ELISA, fold)” value was roughly 1300 fold; the “proliferation of gated CD4+ T cells within total PBMCs stimulated with anti-CD3/anti-CD28 coated BTN-K32 cells (fold change)” value is no less than 1.5 fold; the “proliferation of gated CD8+ T cells within total PBMCs stimulated with anti-CD3/anti-CD28 coated BTN-K32 cells (fold change)” value was no less than 1.5 fold. In test [5], the “proliferation of purified CD4+ T cells stimulated with BTN-K32 cells (fold change)” value was no less than 1.5 fold and the “proliferation of purified CD8+ T cells stimulated with BTN-K32 cells (fold change)” value is no less than 2 fold. The binding result in test [6] is reported as “binds”.

With B4, the binding result in test [7] and in test [8] was “no binding” in each case.
